The text below walks through data of the RNAGym collection of RNA variant scans (doi:10.7554/elife.80360).

B1: CPEB3 Ribozyme (parent)
chain: GGGGGCCACAGCAGAAGCGUUCACGUCGCGGCCCCUGUCAGAUUCUGGUGAAUCUGCGAAUUCUGCUGU

The variants in the series derive from B1. Briefly: self-cleavage, relative activity (ratio to wild type); higher = more cleavage; co-transcriptional.
On to G5U U43A, for which the self-cleavage was determined as 0.111.

As to C6U C39A, the self-cleavage amounted to 0.852.

Regarding G5U G31U, the self-cleavage stood at 0.0958.

Turning to G5U, the self-cleavage was determined as 0.316.

Take G5C: the self-cleavage was 0.24.

For C6U G58U, the self-cleavage was found to be 1.01.

As to C6A G48A, the self-cleavage is 0.712.

With C6A G48U, the self-cleavage stood at 0.776.

In the case of C6G C35G, the self-cleavage came to 0.0784.

Regarding C6U C27U, the self-cleavage turned out to be 0.256.

C6G G30U: the self-cleavage is 0.045.

In the case of G5U C18U, the self-cleavage was determined as 0.063.

On to C6G A60C, for which the self-cleavage amounted to 0.0823.

Turning to C6A C22G, the self-cleavage was determined as 0.155.

For the variant G5C G31A, the self-cleavage worked out at 0.2.

On to G5C G31C, for which the self-cleavage came to 0.0712.

For G5U U21G, the self-cleavage stood at 0.0935.

Consider C6A U61A, for which the self-cleavage was determined as 0.217.

On to C6G U36C, for which the self-cleavage is 0.184.

C6A U43C: the self-cleavage was 0.412.

C6A U43A: the self-cleavage was determined as 0.294.

For C6G U46C, the self-cleavage worked out at 0.41.

As for C6G U46A, the self-cleavage worked out at 0.377.

As for C6G U46G, the self-cleavage is 0.386.

For the variant G5U G30A, the self-cleavage stood at 0.0886.

As for G5C A59U, the self-cleavage turned out to be 0.14.

For the variant G5C A59C, the self-cleavage worked out at 0.135.

With C6G C29A, the self-cleavage was determined as 0.0897.

In the case of C6A C35G, the self-cleavage is 0.134.

Regarding C6A C35U, the self-cleavage turned out to be 0.27.

Regarding G5C C27G, the self-cleavage is 0.0907.

As to G5C C27A, the self-cleavage amounted to 0.109.

For C6U G50C, the self-cleavage came out at 1.02.

With C6U G50U, the self-cleavage came out at 0.979.

As for C6A U67G, the self-cleavage was 0.835.

Regarding G5A U55G, the self-cleavage stood at 0.433.

In the case of C6A G58C, the self-cleavage amounted to 0.567.

For C6G C39U, the self-cleavage came out at 0.168.

On to C6G C39A, for which the self-cleavage was 0.173.

With G5U C29U, the self-cleavage came out at 0.103.

On to G5U U53C, for which the self-cleavage was found to be 0.0878.

Take G5U U53A: the self-cleavage was found to be 0.116.

On to G5U U26C, for which the self-cleavage was 0.155.

Turning to C6A U62G, the self-cleavage stood at 0.211.

For C6A U62A, the self-cleavage stood at 0.175.

As to G5U G19A, the self-cleavage worked out at 0.06.

As to G5A G50U, the self-cleavage amounted to 0.906.

Regarding G5U G11A, the self-cleavage was 0.185.

As to G5U G11C, the self-cleavage amounted to 0.0768.

On to C6U U26G, for which the self-cleavage amounted to 0.91.

C6A U20G: the self-cleavage amounted to 0.161.

G5A G65U: the self-cleavage is 0.513.

In the case of G5A U21G, the self-cleavage is 0.161.

With G5A U36C, the self-cleavage was 0.831.

Consider G5A U36G, for which the self-cleavage amounted to 0.521.

As for C6A A15U, the self-cleavage was determined as 0.176.

Take C6A A15G: the self-cleavage was 0.467.

Regarding C6U C63A, the self-cleavage amounted to 0.806.

With G5C A42G, the self-cleavage worked out at 0.282.

For the variant G5U G41A, the self-cleavage worked out at 0.12.

On to G5U U38A, for which the self-cleavage stood at 0.235.

G5U U38G: the self-cleavage was found to be 0.0473.

Regarding C6A A13U, the self-cleavage stood at 0.346.

Turning to C6A A13C, the self-cleavage was determined as 0.262.

In the case of C6G U38G, the self-cleavage was found to be 0.0812.

As for C6U G31A, the self-cleavage is 1.02.

As to C6G C9U, the self-cleavage amounted to 0.489.

Regarding C6U G56A, the self-cleavage was determined as 0.962.

As for G5U A15G, the self-cleavage worked out at 0.19.

On to G5U A15U, for which the self-cleavage came to 0.092.

For G5U A15C, the self-cleavage was found to be 0.0532.

In the case of C6G C66G, the self-cleavage came to 0.311.

Consider G5C C22A, for which the self-cleavage came to 0.107.

For the variant C6U C22A, the self-cleavage stood at 0.172.

Regarding C6U C22U, the self-cleavage is 0.198.

As for C6U U21A, the self-cleavage was found to be 0.997.

In the case of C6G A51G, the self-cleavage is 0.356.

Take C6G A51C: the self-cleavage stood at 0.154.

Turning to G5C U53C, the self-cleavage was 0.151.

As to G5C U53A, the self-cleavage stood at 0.175.

For the variant G5C U53G, the self-cleavage was 0.212.

As to C6U A40G, the self-cleavage was determined as 0.999.

Consider G5U C9G, for which the self-cleavage amounted to 0.772.

For G5U U49G, the self-cleavage was determined as 0.171.

As for G5C G19C, the self-cleavage was found to be 0.0995.

Consider C6G C12U, for which the self-cleavage was 0.271.

Consider C6G C12G, for which the self-cleavage was found to be 0.253.

C6G C12A: the self-cleavage was 0.102.

For the variant C6U A42G, the self-cleavage is 0.951.

Turning to G5C G28A, the self-cleavage was 0.134.

Turning to G5A G48U, the self-cleavage worked out at 0.939.

As to C6A G17A, the self-cleavage was determined as 0.131.

With C6A C7U, the self-cleavage came out at 0.115.

For the variant C6A C7G, the self-cleavage was found to be 0.0736.

Turning to C6A C45A, the self-cleavage amounted to 0.523.

Regarding G5U C45G, the self-cleavage was 0.149.

As for C6U G14C, the self-cleavage came out at 0.458.

For the variant C6U G14U, the self-cleavage amounted to 0.616.

Consider C6G A16G, for which the self-cleavage came to 0.127.

With C6G U53G, the self-cleavage is 0.136.

In the case of G5U G65C, the self-cleavage was 0.205.

Turning to C6U A13G, the self-cleavage came to 0.987.

Turning to C6U A13U, the self-cleavage is 0.867.

On to C6U C18G, for which the self-cleavage amounted to 0.0786.

Take C6U C18U: the self-cleavage was 0.727.

For G5C A16U, the self-cleavage is 0.169.

G5C A16G: the self-cleavage amounted to 0.205.

For the variant G5C A16C, the self-cleavage came out at 0.0946.

Take C6A U38A: the self-cleavage is 0.3.

As to C6G G25A, the self-cleavage was 0.0449.

For the variant C6A U36A, the self-cleavage was 0.128.

C6A U36G: the self-cleavage came to 0.138.

As to C6G U62C, the self-cleavage was found to be 0.0999.

As for G5U A8U, the self-cleavage worked out at 0.151.

As for G5C G50U, the self-cleavage amounted to 0.243.

G5C U38C: the self-cleavage worked out at 0.12.

Regarding G5C U38A, the self-cleavage came to 0.145.

In the case of C6G A13C, the self-cleavage was determined as 0.163.

Take C6G A13U: the self-cleavage came to 0.123.

With C6U U20C, the self-cleavage was found to be 0.144.

For C6U U20A, the self-cleavage amounted to 0.115.

C6U A52G: the self-cleavage was found to be 0.997.

For the variant G5C C32U, the self-cleavage stood at 0.703.

With G5C C32A, the self-cleavage is 0.805.

Consider G5U G56U, for which the self-cleavage is 0.104.

For G5U G56A, the self-cleavage was found to be 0.137.

Regarding G5U G56C, the self-cleavage came out at 0.163.

As to G5C G56U, the self-cleavage is 0.131.

In the case of G5C G56C, the self-cleavage was 0.166.

C6G A15U: the self-cleavage came to 0.128.

On to C6G A15G, for which the self-cleavage came out at 0.212.

Take G5C C6A: the self-cleavage was 0.0948.

In the case of G5C C6U, the self-cleavage worked out at 0.158.

For C6G A8G, the self-cleavage was 0.358.

In the case of C6A U55A, the self-cleavage is 0.396.

On to C6A U55G, for which the self-cleavage was 0.2.

Take C6U C34G: the self-cleavage amounted to 0.188.

C6G U61A: the self-cleavage amounted to 0.128.

With C6G U61G, the self-cleavage was determined as 0.209.

G5C U20A: the self-cleavage stood at 0.0824.

Turning to G5C U20C, the self-cleavage is 0.0972.

C6G U55G: the self-cleavage stood at 0.144.

As for C6G U55A, the self-cleavage worked out at 0.26.

Consider C6G U55C, for which the self-cleavage amounted to 0.284.

In the case of C6A A59C, the self-cleavage is 0.221.

C6A A59U: the self-cleavage is 0.202.

As to G5U G50A, the self-cleavage was 0.309.

Regarding G5C A15U, the self-cleavage is 0.15.

In the case of G5C A15G, the self-cleavage was determined as 0.3.

Consider G5C A15C, for which the self-cleavage amounted to 0.113.

On to G5C G14A, for which the self-cleavage was 0.0874.

As to G5C G14C, the self-cleavage amounted to 0.146.

In the case of G5A U53C, the self-cleavage is 0.584.

Take G5A U53A: the self-cleavage came out at 0.74.

Turning to C6U A15U, the self-cleavage was 0.698.

Take G5U U36C: the self-cleavage is 0.21.

Consider C6U A51G, for which the self-cleavage was determined as 1.01.

With C6U A51U, the self-cleavage was 0.986.

As to G5U G48A, the self-cleavage is 0.39.

Turning to C6A C24U, the self-cleavage was 0.195.

As for G5U C34U, the self-cleavage was found to be 0.111.

With G5U C33U, the self-cleavage was found to be 0.121.

In the case of G5U C33A, the self-cleavage was determined as 0.0802.

With G5U C33G, the self-cleavage was 0.0433.

For C6A G30C, the self-cleavage turned out to be 0.209.

For the variant G5C A10U, the self-cleavage was determined as 0.341.

As for C6G G65C, the self-cleavage stood at 0.158.
